Measurements: US20170030911
Substitutions are numbered along the chain they refer to. Names and notes keep the numbering of the source.

T1: native bovine biglycan, P21809
T1 chain: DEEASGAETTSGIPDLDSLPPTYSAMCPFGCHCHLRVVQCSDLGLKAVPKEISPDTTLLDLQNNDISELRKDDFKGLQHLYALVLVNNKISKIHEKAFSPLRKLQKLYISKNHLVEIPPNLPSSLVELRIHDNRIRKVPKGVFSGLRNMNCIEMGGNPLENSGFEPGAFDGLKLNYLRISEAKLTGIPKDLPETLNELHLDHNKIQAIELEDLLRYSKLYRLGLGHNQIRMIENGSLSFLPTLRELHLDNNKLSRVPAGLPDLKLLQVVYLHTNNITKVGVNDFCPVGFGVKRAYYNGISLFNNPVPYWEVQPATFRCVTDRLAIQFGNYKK

T2: native bovine decorin, P21793
T2 chain: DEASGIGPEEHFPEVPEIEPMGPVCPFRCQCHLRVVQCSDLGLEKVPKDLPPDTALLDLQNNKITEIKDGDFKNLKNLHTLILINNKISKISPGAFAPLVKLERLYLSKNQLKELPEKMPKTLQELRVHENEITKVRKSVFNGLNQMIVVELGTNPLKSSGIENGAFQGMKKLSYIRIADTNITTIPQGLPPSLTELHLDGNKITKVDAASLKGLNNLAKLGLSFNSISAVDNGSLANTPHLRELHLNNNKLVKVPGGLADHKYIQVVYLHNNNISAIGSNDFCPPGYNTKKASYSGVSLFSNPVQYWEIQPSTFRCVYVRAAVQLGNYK

T3: recombinant human E-cadherin, P12830
T3 chain: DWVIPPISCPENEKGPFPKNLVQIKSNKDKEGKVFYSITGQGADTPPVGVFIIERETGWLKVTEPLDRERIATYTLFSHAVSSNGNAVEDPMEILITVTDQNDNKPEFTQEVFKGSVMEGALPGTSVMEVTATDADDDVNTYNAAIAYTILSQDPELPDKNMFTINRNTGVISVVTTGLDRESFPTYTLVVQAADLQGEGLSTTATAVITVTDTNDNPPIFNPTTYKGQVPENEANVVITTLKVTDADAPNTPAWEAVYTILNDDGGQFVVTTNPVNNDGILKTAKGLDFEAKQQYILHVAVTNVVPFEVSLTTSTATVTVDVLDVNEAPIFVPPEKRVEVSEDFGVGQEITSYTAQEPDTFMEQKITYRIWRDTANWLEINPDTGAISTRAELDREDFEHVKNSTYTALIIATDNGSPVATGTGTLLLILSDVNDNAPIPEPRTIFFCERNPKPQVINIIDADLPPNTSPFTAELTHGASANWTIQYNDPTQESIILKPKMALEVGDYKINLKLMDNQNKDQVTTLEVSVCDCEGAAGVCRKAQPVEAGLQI

T4: recombinant human biglycan, P21810
T4 chain: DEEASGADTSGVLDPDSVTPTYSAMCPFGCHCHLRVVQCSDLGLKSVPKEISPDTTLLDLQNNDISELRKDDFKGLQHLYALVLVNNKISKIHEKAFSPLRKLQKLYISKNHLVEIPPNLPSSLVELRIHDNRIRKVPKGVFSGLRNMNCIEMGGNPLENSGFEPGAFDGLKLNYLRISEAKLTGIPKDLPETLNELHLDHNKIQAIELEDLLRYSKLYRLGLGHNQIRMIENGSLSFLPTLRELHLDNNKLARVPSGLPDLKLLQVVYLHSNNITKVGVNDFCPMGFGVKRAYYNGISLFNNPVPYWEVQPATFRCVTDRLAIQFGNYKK

T5: recombinant human brevican, Q96GW7
T5 chain: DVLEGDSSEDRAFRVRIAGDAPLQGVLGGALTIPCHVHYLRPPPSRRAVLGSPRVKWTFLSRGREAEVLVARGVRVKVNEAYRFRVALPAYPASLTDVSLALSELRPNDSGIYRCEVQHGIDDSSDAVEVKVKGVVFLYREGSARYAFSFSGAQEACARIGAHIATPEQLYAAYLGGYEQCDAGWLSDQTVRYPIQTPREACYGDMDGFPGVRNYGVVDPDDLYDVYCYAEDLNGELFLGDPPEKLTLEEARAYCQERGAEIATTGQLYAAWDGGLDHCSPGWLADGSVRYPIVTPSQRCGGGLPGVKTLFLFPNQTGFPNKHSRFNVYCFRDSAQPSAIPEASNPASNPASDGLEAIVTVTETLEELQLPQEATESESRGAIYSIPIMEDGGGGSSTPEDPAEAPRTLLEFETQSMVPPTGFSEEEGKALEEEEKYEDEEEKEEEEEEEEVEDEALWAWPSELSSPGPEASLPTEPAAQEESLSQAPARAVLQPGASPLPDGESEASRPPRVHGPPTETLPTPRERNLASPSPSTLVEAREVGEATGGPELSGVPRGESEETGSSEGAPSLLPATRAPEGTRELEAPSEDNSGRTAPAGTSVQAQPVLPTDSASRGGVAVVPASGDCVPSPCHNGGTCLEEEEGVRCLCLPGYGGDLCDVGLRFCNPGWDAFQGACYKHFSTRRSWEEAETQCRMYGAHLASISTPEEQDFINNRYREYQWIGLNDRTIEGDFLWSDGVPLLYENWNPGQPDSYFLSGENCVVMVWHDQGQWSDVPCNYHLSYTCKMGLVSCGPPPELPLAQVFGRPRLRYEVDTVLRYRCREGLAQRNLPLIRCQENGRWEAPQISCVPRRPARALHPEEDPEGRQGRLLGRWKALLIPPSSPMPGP

T6: recombinant human decorin, P07585
T6 chain: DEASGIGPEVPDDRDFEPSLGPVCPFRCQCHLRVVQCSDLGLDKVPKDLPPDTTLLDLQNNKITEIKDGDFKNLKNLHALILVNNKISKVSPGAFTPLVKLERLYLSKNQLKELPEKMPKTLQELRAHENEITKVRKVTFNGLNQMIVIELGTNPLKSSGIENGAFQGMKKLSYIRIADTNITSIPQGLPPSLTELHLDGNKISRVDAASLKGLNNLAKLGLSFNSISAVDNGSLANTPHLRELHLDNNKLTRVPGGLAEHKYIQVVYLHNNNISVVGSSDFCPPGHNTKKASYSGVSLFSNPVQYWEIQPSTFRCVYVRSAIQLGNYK

B1: Borrelia burgdorferi HtrA (BB0104, BbHtrA), recombinant wild type mature protein (amino acids 38-474), His-tagged, made in E. coli (protein)
chain: EEKDNTVRALQDSFREVSKKILPSSVEVHATGVIKQSFPIPFFFFDMPEFDSERKSNWAGSGVIIGRDSQKKSLFYVVTNSHVVDKATELEVVSYDKKKHKAKLIGKDEKKDIALISFESDDATIKVADLGDSDKLEIGDWVMAVGSPFQFSFTVTAGIVSGLQRSANPNLQSRNLFIQTDAAINRGNSGGPLVNIKGEVIGINAWIASNSGGNIGLGFAIPVNNIKSTVDFFLKGKKIESAWLGISFYPLKTRDSEVLKSLGVESNDVSAAIIASLYPGSPAVKSGLRAGDIIMKVNGVSMSVFQDVTSYISDFYAGEKVNVEILRGNVKKNIEIVLAVRPKDKELSSSKMLPGFVVYPLVEDIKAQLNLRNWIKGVVVDYIDKNLASNIKMKSGDVILSVNSKSVSNLREFYDALEVGKNTYKILRGNDSFKITF
B2: Borrelia burgdorferi HtrA (BB0104, BbHtrA^S226A), recombinant inactive mutant, mature protein (amino (protein)
chain: B1 chain with S189A

What was measured:
[1] = target: native bovine aggrecan, fully glycosylated, P13608
Chain of native bovine aggrecan, fully glycosylated, P13608 (P13608 17-2364): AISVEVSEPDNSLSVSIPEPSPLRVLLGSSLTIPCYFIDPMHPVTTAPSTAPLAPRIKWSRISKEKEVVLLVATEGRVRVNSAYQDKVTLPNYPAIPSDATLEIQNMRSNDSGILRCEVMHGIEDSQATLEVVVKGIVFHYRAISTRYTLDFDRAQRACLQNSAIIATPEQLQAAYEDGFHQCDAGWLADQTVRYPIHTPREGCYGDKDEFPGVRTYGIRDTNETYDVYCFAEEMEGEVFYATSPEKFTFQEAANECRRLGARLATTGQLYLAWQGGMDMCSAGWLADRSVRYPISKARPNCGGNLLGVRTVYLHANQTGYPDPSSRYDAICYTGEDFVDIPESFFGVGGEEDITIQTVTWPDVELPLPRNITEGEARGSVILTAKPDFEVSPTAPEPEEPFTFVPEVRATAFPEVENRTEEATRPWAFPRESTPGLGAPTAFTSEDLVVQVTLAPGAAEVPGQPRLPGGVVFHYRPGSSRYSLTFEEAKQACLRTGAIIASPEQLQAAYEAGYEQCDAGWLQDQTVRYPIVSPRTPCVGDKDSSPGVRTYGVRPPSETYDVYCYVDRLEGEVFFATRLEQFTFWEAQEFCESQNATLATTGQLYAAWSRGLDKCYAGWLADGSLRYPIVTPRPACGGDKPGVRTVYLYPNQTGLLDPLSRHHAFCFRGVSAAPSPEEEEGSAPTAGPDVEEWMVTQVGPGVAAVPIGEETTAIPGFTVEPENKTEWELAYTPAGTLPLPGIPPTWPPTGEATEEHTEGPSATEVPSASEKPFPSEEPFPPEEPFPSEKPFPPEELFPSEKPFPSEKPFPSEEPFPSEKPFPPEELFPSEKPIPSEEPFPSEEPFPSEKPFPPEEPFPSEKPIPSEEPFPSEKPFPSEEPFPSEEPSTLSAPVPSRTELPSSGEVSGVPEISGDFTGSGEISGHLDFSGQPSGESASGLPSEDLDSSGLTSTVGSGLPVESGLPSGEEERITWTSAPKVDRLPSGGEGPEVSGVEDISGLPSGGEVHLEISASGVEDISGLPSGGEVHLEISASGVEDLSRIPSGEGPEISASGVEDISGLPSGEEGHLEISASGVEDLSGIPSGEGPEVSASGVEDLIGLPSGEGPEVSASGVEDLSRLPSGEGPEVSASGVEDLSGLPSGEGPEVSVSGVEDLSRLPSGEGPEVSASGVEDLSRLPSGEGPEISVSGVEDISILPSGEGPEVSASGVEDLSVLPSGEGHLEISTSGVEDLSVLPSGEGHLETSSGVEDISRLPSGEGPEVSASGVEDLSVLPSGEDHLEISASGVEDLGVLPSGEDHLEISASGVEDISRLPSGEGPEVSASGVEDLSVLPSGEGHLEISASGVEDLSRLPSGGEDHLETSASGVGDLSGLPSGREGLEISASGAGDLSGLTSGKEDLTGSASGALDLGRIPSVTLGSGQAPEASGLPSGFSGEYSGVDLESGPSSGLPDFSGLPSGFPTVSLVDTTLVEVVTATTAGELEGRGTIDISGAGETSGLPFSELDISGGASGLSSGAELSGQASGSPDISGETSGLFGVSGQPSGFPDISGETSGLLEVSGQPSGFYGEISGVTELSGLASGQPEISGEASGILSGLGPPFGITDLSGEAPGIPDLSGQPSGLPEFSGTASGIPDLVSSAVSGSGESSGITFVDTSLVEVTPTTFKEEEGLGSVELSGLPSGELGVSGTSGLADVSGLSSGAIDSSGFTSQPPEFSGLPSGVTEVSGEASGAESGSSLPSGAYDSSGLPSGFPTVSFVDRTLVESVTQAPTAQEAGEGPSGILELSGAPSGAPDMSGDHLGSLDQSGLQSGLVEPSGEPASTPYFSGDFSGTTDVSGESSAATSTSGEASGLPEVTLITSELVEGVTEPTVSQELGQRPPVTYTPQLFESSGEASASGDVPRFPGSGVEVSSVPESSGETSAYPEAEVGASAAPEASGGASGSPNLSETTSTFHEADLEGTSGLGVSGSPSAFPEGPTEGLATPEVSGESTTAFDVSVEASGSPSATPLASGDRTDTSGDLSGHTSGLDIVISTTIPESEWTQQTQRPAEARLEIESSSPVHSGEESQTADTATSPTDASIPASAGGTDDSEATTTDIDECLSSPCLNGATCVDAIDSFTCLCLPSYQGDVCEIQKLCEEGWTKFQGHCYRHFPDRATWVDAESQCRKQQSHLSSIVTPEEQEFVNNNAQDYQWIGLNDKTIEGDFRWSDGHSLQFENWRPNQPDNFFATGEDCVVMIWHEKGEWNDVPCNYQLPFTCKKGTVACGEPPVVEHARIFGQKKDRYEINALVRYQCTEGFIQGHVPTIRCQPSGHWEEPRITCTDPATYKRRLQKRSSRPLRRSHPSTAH

[2] = target: T1, native bovine biglycan, P21809
[3] = target: T2, native bovine decorin, P21793
[4] = target: native human plasma fibronectin, P02751
[5] = target: T3, recombinant human E-cadherin, P12830
[6] = target: recombinant human aggrecan (G1-IGD-G2 domains), P16112
Chain of recombinant human aggrecan (G1-IGD-G2 domains), P16112 (P16112 20-675): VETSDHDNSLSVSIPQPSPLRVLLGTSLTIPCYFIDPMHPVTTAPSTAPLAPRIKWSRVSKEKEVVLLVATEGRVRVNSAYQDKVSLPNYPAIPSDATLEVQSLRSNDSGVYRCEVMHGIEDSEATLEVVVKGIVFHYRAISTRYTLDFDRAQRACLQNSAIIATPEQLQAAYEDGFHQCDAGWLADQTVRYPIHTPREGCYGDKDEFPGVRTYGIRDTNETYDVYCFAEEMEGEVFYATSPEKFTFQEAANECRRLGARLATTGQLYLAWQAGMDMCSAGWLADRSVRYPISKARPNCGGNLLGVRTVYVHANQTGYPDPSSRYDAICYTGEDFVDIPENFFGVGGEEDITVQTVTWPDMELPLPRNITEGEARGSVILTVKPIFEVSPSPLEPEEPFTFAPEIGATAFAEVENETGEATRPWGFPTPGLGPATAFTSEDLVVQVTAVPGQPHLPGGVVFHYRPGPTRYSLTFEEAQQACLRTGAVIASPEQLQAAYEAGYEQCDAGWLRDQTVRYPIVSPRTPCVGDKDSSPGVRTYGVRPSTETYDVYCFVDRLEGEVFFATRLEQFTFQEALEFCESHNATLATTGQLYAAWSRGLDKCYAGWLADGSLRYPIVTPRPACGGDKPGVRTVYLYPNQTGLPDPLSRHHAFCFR

[7] = target: T4, recombinant human biglycan, P21810
[8] = target: T5, recombinant human brevican, Q96GW7
[9] = target: T6, recombinant human decorin, P07585
[10] = target: recombinant human neurocan, O14594
Chain of recombinant human neurocan, O14594 (O14594 23-1321): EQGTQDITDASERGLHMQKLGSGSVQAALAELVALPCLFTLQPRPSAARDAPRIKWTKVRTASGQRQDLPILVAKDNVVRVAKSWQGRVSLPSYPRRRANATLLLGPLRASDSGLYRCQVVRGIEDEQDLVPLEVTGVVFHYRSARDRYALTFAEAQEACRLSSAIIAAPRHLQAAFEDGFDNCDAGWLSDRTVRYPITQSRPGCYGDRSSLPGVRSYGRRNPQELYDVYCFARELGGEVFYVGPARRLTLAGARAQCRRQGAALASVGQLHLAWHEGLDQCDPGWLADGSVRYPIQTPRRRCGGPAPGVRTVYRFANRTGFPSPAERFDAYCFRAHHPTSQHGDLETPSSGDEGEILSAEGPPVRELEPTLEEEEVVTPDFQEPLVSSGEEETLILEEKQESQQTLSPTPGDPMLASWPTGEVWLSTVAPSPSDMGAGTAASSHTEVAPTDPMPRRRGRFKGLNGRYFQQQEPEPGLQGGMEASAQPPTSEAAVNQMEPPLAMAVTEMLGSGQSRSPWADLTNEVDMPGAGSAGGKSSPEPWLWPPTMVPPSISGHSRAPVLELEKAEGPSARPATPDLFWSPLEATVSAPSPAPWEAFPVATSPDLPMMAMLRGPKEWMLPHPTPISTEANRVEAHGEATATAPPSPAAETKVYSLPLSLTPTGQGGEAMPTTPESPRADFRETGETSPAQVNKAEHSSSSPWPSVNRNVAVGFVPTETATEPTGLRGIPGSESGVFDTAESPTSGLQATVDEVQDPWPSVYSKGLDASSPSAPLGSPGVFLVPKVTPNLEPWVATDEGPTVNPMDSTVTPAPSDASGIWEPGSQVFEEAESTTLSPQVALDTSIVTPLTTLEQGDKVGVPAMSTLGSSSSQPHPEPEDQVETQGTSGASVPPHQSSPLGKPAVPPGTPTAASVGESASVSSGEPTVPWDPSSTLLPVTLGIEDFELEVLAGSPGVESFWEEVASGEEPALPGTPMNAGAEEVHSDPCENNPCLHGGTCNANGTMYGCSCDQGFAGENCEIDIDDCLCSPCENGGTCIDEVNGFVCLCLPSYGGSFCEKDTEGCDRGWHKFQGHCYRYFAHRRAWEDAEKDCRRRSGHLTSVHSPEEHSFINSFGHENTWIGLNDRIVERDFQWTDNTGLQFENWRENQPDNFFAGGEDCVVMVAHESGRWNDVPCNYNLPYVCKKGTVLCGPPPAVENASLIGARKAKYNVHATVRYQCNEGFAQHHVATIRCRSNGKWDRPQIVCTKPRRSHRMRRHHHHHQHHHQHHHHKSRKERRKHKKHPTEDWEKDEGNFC

[11] = target: recombinant human versican, P13611
[12] = target: β-casein (in 12% β-casein Zymogram Ready Gels, Bio-Rad)

Protein	Proteolytic activity [1]	Proteolytic activity [2]	Proteolytic activity (native bovine casein)	Proteolytic activity [3]	Proteolytic activity [4]	Proteolytic activity [5]	Proteolytic activity [6]	Proteolytic activity [7]	Proteolytic activity [8]	Proteolytic activity [9]	Proteolytic activity [10]	Proteolytic activity [11]	β-casein zymography [12]	proteolytic fragments on silver-stained SDS-PAGE [6]
B1	+	+	+	+	+	+	+	+	+	+	+	+	Recombinant BbHtrA was proteolytically active against β-casein as evidenced by clearing around the protein band	
B2														incubation of recombinant aggrecan (FIG. 4A, lane 1) alone or with the inactive mutant (FIG. 4A, lane 6) failed to generate these fragments
